From article PMC4372080 (Nature, 2014) come the findings set out here.

The target of this assay is T1, TmrA-A591C (Thermus thermophilus, UniProt Q72J05 1-600, A591C).
T1 sequence (looked up): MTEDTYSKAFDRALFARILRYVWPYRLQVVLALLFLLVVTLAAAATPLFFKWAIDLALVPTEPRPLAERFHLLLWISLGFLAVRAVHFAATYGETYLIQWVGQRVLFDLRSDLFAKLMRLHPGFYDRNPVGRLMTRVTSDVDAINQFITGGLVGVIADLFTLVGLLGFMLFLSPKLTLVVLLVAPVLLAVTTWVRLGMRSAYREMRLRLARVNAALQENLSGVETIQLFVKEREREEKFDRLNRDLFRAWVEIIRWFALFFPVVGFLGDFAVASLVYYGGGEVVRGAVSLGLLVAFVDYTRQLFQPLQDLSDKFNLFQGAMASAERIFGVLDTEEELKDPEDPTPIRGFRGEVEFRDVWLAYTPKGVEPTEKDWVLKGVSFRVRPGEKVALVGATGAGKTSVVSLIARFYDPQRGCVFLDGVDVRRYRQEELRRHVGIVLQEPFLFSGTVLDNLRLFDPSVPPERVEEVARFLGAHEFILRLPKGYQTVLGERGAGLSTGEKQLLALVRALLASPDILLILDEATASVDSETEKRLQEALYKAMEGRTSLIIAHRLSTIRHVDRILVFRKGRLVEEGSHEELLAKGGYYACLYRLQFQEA
In words: cross-linking.

B1: TmrB-A567C (natural protein, Thermus thermophilus, UniProt Q72J04 1-578, looked up)
chain: MTGRSAAPLLRRLWPYVGRYRWRYLWAVLAGLVSIFFFVLTPYFLRLAVDAVQAGRGFGVYALAIVASAALSGLLSYAMRRLAVVASRQVEYDLRRDLLHHLLTLDRDFYHKHRVGDLMNRLNTDLSAVREMVGPGILMGSRLSFLVLLAFLSMYAVNARLAFYLTLILPGIFLAMRFLLRLIDRRYREAQEVFDRISTLAQEAFSGIRVVKGYALERRMVAWFQDLNRLYVEKSLALARVEGPLHALLGFLMGFAFLTVLWAGGAMVVRGELSVGELVQFNAYLAQLTWPILGLGWVMALYQRGLTSLRRLFELLDEKPAIRDEDPLPLALEDLSGEVRFEGVGLKRDGRWLLRGLTLTIPEGMTLGITGRTGSGKSLLAALVPRLLDPSEGRVYVGGHEARRIPLAVLRKAVGVAPQEPFLFSETILENIAFGLDEVDRERVEWAARLAGIHEEILAFPKGYETVLGERGITLSGGQRQRVALARALAKRPKILILDDALSAVDAETEARILQGLKTVLGKQTTLLISHRTAALRHADWIIVLDGGRIVEEGTHESLLQAGGLYCEMDRLQKEVEA
For the molecule B1, the binding result was “binds”.
